Here are results for one molecule from US20230340140A1 (INNATE PHARMA, published 2023).

In test [1] the target is T1, Human C5aR (C5aR1) (human, UniProt P21730 1-350).
T1 construct: Native receptor on human neutrophils/granulocytes (blood of patients or healthy volunteers); also called C5a receptor
T1 sequence: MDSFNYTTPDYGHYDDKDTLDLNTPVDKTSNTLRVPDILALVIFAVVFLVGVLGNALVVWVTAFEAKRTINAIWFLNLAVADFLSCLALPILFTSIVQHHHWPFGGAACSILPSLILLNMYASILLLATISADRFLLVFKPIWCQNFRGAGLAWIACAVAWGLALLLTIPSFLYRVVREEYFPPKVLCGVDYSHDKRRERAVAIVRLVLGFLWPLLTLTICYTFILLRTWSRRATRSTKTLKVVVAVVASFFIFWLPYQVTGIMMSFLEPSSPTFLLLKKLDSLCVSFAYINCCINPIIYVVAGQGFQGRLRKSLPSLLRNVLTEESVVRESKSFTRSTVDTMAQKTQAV
Briefly: EC50 of C5aR saturation in the PD part of the PKPD model, derived from PK/receptor saturation data of the phase I trial; PD parameter of the PKPD model, from phase I PK/receptor saturation data; not in vitro. The source says:
A PKPD model was built in Phoenix 64 WinNonLin version 8.1.0.3530, to predict avdoralimab serum concentrations in blood post s.c. administration, as well as C5aR saturation. Pharmacokinetics of therapeutic mAbs are usually modelled using a two-compartment model (Deng et al. 2011 MAbs 3(1): 61-66). Based on the PK results described in Example 1, avdoralimab is expected to display PK properties similar to other therapeutic antibodies in humans, except for compound-specific target-mediated drug disposition (TMDD). This TMDD effect can be modelled by an additional non-linear elimination added to the model (Wang et al. 2016 Biopharm. Drug Dispos. 37: 51-65). […] Absorption rate (Ka) and bioavailability (Ba) for s.c. administration were estimated based on PK results for Example 1. EC₅₀ in the PD part of PKPD model is derived from PK/RSA data observed in phase I clinical trial, and is similar to EC₅₀ binding to human neutrophils in vitro=0.34 nM=51 ng/mL in FACS titration assays.

The target in test [2] is T1, Human C5aR (C5aR1). Kind of test: FACS titration on human neutrophils in vitro; FACS titration on human neutrophils in vitro, given in nM.
Test [3] addresses T1, Human C5aR (C5aR1). Briefly: cell-based or functional assay.

B1: Avdoralimab (antibody, human IgG1, kappa, V domains shown)
VH: EVQLVESGGGLVQPGGSLRLSCAASGFTFSSYVMHWVRQATGKGLEWVSAIDTGGGTYYADSVKGRFTISRENAKNSLYLQMNSLRAGDTAVYYCARDYYYYASGSYYKAFDIWGQGTMVTVSS
VL: EIVLTQSPGTLSLSPGERATLSCRASQSVSSRYLAWYQQKPGQAPRLLIYGASSRATGIPDRFSGSGSGTDFTLTISRLEPEDFAVYYCQQYGSPLTFGQGTKLEIKR
notes: also called IPH5401
As to B1, the EC50 with Human C5aR (C5aR1) [1] amounted to 0.05 µg/mL; in the test with Human C5aR (C5aR1) [2] it was 340 pM. Also, in the test with Human C5aR (C5aR1) [3], the “EC50 for inhibition of C5a-induced CD11b expression on neutrophils in human whole blood (flow cytometry, MedFI, normalized)” value came out at 0.34 µg/mL.
